Results reported in the DeepSol protein solubility set.

Experiment: soluble on expression in E. coli; label from the status in PepcDB or PDB records

| Sequence | soluble on expression in E. coli |
| --- | --- |
| MSLKTITTFENKKVLVLGLARSGEAAARLLAKLGAIVTVNDGKPFDENPTAQSLLEEGIKVVCGSHPLELLDEDFCYMIKNPGIPYNNPMVKKALEKQIPVLTEVELAYLVSESQLIGITGSNGKTTTTTMIAEVLNAGGQRGLLAGNIGFPASEVVQAANDKDTLVMELSSFQLMGVKEFRPHIAVITNLMPTHLDYHGSFEDYVAAKWNIQNQMSSSDFLVLNFNQGISKELAKTTKATIVPFSTTEKVDGAYVQDKQLFYKGENIMSVDDIGVPGSHNVENALATIAVAKLAGISNQVIRETLSNFGGVKHRLQSLGKVHGISFYNDSKSTNILATQKALSGFDNTKVILIAGGLDRGNEFDELIPDITGLKHMVVLGESASRVKRAAQKAGVTYSDALDVRDAVHKAYEVAQQGDVILLSPANASWDMYKNFEVRGDEFIDTFESLRGEGHHHHHH | soluble |
| MSLKTMSDTSEIIFSNYGIYDLGDNLELLLPNTLIKFQRISDNAFSYFRENSEGQIIEKIIPVKSNDIKIELAPIRPLNHPAKRTNYVFLKLDKEIHLGENSAASIFVHCPIEIGIFLIYGDNHEPLDWITCNPLNSRFSLYGSPDTGTLCKYAEVSLATDYNDSVSYVNGVMHIVIENTLSFAQTISKVIFPITDNNLYYKDSKSIVDGIKIIMKKRAAVNIAEIKPTLVDTEWTQAPAWDNSIDSVHHMEMTLEEGHHHHHH | soluble |
| MSLKVGERHYHTIWLNEDGRSVDIIDQRWLPHEFRVVTLKTVADVADAIRDMWVRGAPLIGVTAAYGVAIAMAKDPSDAHLDAVWEELNETRPTAINLRWALNAMREYLRPLPEAERADAAYKRAAEIAEEDVELNRAIGANGLDVIREIASKKKPGEPVRILTHCNAGWLATVDYGTATAPIYMAVEEGIPVHVYVDETRPRNQGAYLTAWEMNGHGVPHTLIVDNAGGHLMQHGDIDMVIVGTDRTTANGDVCNKIGTYLKALAARDNDVPFYVALPSPTIDWTVQDGVKEIPIEERTADEVSFVQGRAADGSIASVRISPEGSPAANPAFDVTPARLITGLITERGIATPSPEGLKALFPERSEGHHHHHH | soluble |
| MSLKVIWTVTPVGYQRIAKRCPSCSVKRDFTPSGAFRVNSQKKVLDVWSIYKCTHCDYTWNISLFSRLPVSKINRDLYCRLMANDAATVQYFAYDNAILKRNNAELSGQPDFHIQERWLVSIASHKQVSVSVRISRSFQVSLLSILKKQLLLSAAEIKRRIETGQISGVTMKMLKSRKLKNAKYDLQLSVETLYDRRRIVLTCREGHHHHHH | soluble |
| MSLKYAWIDEQCRHYPLSALCEVLAVSINGYRAWKRGGTVQRKRLTDAQLLTLIRTIHAEVKGAYGSPRMTEEIRARGFPASKARVERLMSKNGIRARHKRRYRVTTDSKHKLPVAPNLLNRDFTPDAPNQVFSSDITYIWTDEGWLYLAVVLDLFNREVVGWSIKPRMTADLVTDALMMAWFRRKPAPGALHHSDRGSQYASHEFQRKLADYGMHCSMSRKGNCWDNAPTESFFNSLKNERVHATHYRTHREAAADLFEYIEVFYSRSRRHSSLGFVPPTQFLQDWLTAQQVKDAVAEGHHHHHH | not soluble |
| MSLKYSSTTADYLQWSEAMNLIRKLARDSNYKMSLLIALGCFTGLRISDILALRWNQILDAEEFTIIEIKTGKQRTIRINMQLQQHIRDCYEHINPVGINAPVLISQKGTVYTVQRINVMLKEIKKKYKLQIGNFSCHSLRKTFGRQVYNMNSDNSELALVKLMELFNHSSVSITKRYLGLRQEELLNTYDCLSF | not soluble |
| MSLLFYRPLASIQALTFDLDDTLYDNRPVIKQVEEKVTEWLLSEHPITATRPLAWWLAMKRDIARRFPEQCHDVSQWRYLQVQHGLLELGYAQPEAEQAASETLEQVMRWRNQVDVPAETHRVLAQLAAKVPLIAITNGNVQIEKIGLSGYFQTVLRAGPDGRAKPYPDLFAQAAQQLQLEPRSILHVGDHLQTDVLGARQNGFQACWFNDQGQSIRRLAKASVLPDVEIERLSELLLIVNEGHHHHHH | soluble |
| MSLLGGPGIELFRRLVEEYEREHDVPMADIAAALAVQCRGGEAFLMAPDPPLSRRNRDQRRDRPQRPKRRPDLTTYRVAVGKRHKIGPGAIVGAIANEGGLHRSDFGQIRIGPDFSLVELPAKLPRATLKKLAQTRISGVLIDLRPYRPPDAARRHNGGKPRRKHVGEGHHHHHH | soluble |
| MSLLLEILDLSRSTYYYQVKRLAQGDKDIELKHVIREIYDEHKGNYGYRRIHMELRNRGFVVNHKKVQRLMKVMGLAARIRRKRKYSSYKGEVGKKADNLIKRHFEGSKPYEKCYTDVTEFALPEGKLYLSPVFDSYNCEIIDFTLSRSPNLKQAQTMLEKTFPADSYSGTILHSDQGWQYQHQSYHDFLESKGILPSMSRKGNSPDNGMMDSFFGILKSEMFYGLETTYQSLDKLEEAITDYIFYYNNKRIKAKLKGLSPVQYRTKSFQEGHHHHHH | not soluble |
| MSLLLFEQPVDLEKNNEDDTNIKPFAISRHFLLKLLLCGIILIELLLYSKCPKPIDNGPRTIANRSNTYFNGTHDFKTLTILISIDGFHPRLIDAKYTPFLYNLHNLRSPYDMNITTAPYMIPSFPTQTFPNHWSMVTGKYPIEHGIVSNIFWDNFTSSEFRPNNLDARIWSNTADPIWQLLQTESQGEYKVATHMWPGSEVVYEDHGDVPRERMPFYFGKFNQWEKLQDKLAQIFRYIDMPQLKDRPELVISYIPNVDSYGHSFGYDLRDKRLQKLIGEVDGFFLDLIEGLQKRNLLKISNVMIVSDHGMSNVNANDGEHVVVWERVFPADAMSAFISHLYNEGPMMMVCLKNPRDKQWICDLIEAQLEKAYGDEISRKFHVILKEDFDPSWKYFQYDNRKHRYDDRVGDIWILADEYYAIVKEMGDVPIGIMGTHGYNFNNCSDMASIFIGMGPMFNNEVVPPFENIEVYNMLIKASALLGEEKTKKEKSLLQEGHHHHHH | not soluble |
| MSLLLIGNGRLITRDAQNHFFENGCVAIDGQVVKQVGTTEELKQAYPEATFIDAKGGVIMPGFINMHNHIYSTFARGLSLTNYHPKNFMDILVDQWWRIDRALTLEDTYQSGKVAYLDSIRNGVTTVFDHHASYGEITGSLTQLSNAADELGIRTCLCYEVSDRDGEQKMREAVQENAAFIKASSLRNDDMQKAMMGMHAAFTLSDASLELCAANTPDGIGYHIHIAEDLADVHDSLKKYGKPIVNRLFDLGILGKQTMAGHCIHIGPHEMELLRDTDTMVVTNPESNMGNAVGCPPAMRMFNEYGILMGLGTDGYTNDVTESYKVGNVIHKHHLADPNAAWAEIPTMLFDNNPQMANRYFKTKLGVLEPNAAADVIIVDYHGPTPMTKENYNMHILFGMNGGMVTDTVINGEIRMRNREVQGIDEEKVWHDAQTQAQSFWKRVNQEGHHHHHH | soluble |
| MSLLNKMRCSVSAEVYGEWNKKKNFVAPVYEKDEGQKEQLERILRQSFLFNSLDEKDLNTVILAMQEKKIEASTCLIREGDDGECLYIVQSGELNCSKLIDGEERVVKVVGPGDAFGELALLYNAPRAATVTSVSACDLWELGRDTFNAIVKDAATKRRSMYDSFLKSVHILDGMDAYERGKVADALRTEMFTDGAYIVRQGELGDVFYIVEEGSAVATKSFGPGQPPIEVKKYQAGDYFGELALINEEPRAANVIAHGICKVACLERKSFKRLMGSVQDLLSKKASDLLTMAEEGHHHHHH | soluble |
| MSLLNTYEPWKFAFSQEETDFNNLKEGAWGIIGVPFDSTTSYHPGSRFGPIVVREASYGFEKYNTIFNTQLDNIFYDFGDVNVVFGNCKKTCDIIEDTVNELSDLKIKPLTIGGEHSLTIGVLNSLTKKYDDLTVVHLDAHRDLADTFIGELYSHASVMKRVHEMGVKELVQIGIRSASKEEEDFVKNQSNITTFKNNDVFHHLDNIEYYLSIIDTPIYLSIDMDVFDPSIAPTVGNPTPNGIAYGHIEAMLQTLSLKNVVGMDVVETAGDRLGDITAVSASKIIYDFLSLLEGHHHHHH | soluble |
| MSLLRKDATEERLTGRYFTPKDLASYIIDWVIQDNNINKILEPSCGNGVFLECLGERRLEDGRNITAIEIDEDVSFEASMQIDNSLRFNNCYDYQRALRNDGDIVNNGIVIINDDFYKVYEQELQGQRFQAIVGNPPYIRYQYLSEQQREEQSKILIRNNMRPNKLINAWVSFVVACAEILDGNGKMGLVIPAELLQVAYAEDLRRFIMRTFQRITIVTFRELVFPNVQQEVVLLLVEKEILHTREGHHHHHH | soluble |
| MSLLSGGLSLNDKSWQALVFDYTNDGMGWPIGALASAEQILLAMSAQLVDTDFELSLLLPEGEGEEALFELADAVAEWINHFISGLGLSGANLKHASVEAKEALEDLEEMSKLGIDEEDDLAEQAELLEQVIEHIKVCVLVLHAEFGVKPEQDTKPTVHEGGSHHHHHH | soluble |
| MSLLSYQHIYHAGNLADVQKHALLALALDYLTRKDKPLSYLETHAGRGLYHLDAAEAVRTGEAGAGIGRAEGAAWFDPAHPMTRVLAAVRTDHGAMAYPGSPLVAAHLLRPGDMMHLAELHPQEHAALEQAMAGYPARVYRRDGVEMAQSLLPPEPRRGMMLIDPSYEVKSDYDRIPAVIAQLHRKWNVGVIALWYPILTDERHKVMLAALERLDLPRVLRHEVRFAPAREGHRMVGSGMFVINAPFGLADEAARLSGLFAQLEGHHHHHH | soluble |
| MSLLTLLRPATVQDCKDIFKVHLHSVQYTCILSYNEHALKVWEGLLNTESYLPTISDPDKALWVAEYKGNIQGFFQIDCQEAQLDALYVHPLFHNLGLGTALLHQAETIAHKSGLSFLKLYASLNSVPFYLLNRYESLGSAVLQLDPSIKIKCELMRKHL | not soluble |
| MSLMKQNPILITGGTGTVGSRIASRLIKLGYRVRIASRKKGALADAEYVYFNWKYASSFTPALEQVKQIYLVAPVGVFDPAPYVLPFLKEAKRLGAKRVVMQSASVVSENGPVFGALHQAVREFPEWTVLRPSYFMQNFINVQHRMSIQTEGRITTASGEGKLGFIDADDIAETAVRALIDDVPHQTHHILTGPEALSYAEAAEIIGAAAGRRVEHVSISRSELQHKMEAGGLPADYAHFMAKLDEAISHGAEHRVTDTVKRVTGKEPRSLSEFAAAHAAYWTSFWTEEGGSHHHHHH | soluble |
| MSLNAKTVTELRSALLYMRAEDYHLWVNMGLALRELGETGRGLWMEWSATSEKFDSKDAAKKWNSFKPTGTSYQAVFAEAARHGWVNPGRSDAQLTGRRVQTQLKTSHKIKLEFAMSSDTETAKVSYLVDPFLPCKCVVGFFGRGGTAKSSFLATMAAMISQRASTLWVSAEELTDWIKARHIKTGGAPGTLQVFRGIETDEHSGQHIQVFGVYEHLDAALTMSNVAARDAGMPAVRLVVLDTAVALTIWPSGQGPNDDASVKRLLAYMQALAEKHDVTIAFIGHNNKRSSQNTEHFEDMVAGAGAWVTSPRVAFVHARDRREENSYVMRLAKPQLTPRFLVTYKTEPVHTLAQREDAPASVLCRVALGDEYIWGEDESASVFDAATGKDTEEDSGHVLEQRATTVQQVIDALVQMVHMTNAGQDVTRDMVHSALHRIVNGRRWKDVDDRLYMAQFQYRIAIVRGPNNQVLYRKMGPAEGHHHHHH | soluble |
| MSLNANRPIINLDLDLLRTFVAVADLNTFAAAAAAVCRTQSAVSQQMQRLEQLVGKELFARHGRNKLLTEHGIQLLGYARKILRFNDEACSSLMFSNLQGVLTIGASDESADTILPFLLSRISSVYPKLALDVRVKRNAYMVDMVKSQEVDLVVTTNQPHSLDCLNLRTSPTHWYCAAEYVLQRGEPVPLVLLDDPSPFRDMVLETLNAAGIPWRLAYVASTLPAVRAAVKAGLGVTARPVEMMSPDLRVLGAADGLPPLPDTEYLLCRDPNSQNELAMVIFHAMESYQNEGHHHHHH | soluble |
